These results are taken from publication doi:10.1101/2023.06.10.544460 (bioRxiv, 2023).

Several values for one entry are separate records, joined by “and”; a condition that tells them apart may be missing. Equal values may be shown once.

This series deals with the molecule itself. In words: cryo-EM structure.

B1: HMPV nucleoprotein N, full length, strain NL1-00 (A1), RNA-bound oligomers (N-RNA) (natural protein, UniProt Q91F57 1-394, looked up)
chain: MSLQGIHLSDLSYKHAILKESQYTIKRDVGTTTAVTPSSLQQEITLLCGEILYAKHADYKYAAEIGIQYISTALGSERVQQILRNSGSEVQVVLTRTYSLGKIKNNKGEDLQMLDIHGVEKSWVEEIDKEARKTMATLLKESSGNIPQNQRPSAPDTPIILLCVGALIFTKLASTIEVGLETTVRRANRVLSDALKRYPRMDIPKIARSFYDLFEQKVYHRSLFIEYGKALGSSSTGSKAESLFVNIFMQAYGAGQTMLRWGVIARSSNNIMLGHVSVQAELKQVTEVYDLVREMGPESGLLHLRQSPKAGLLSLANCPNFASVVLGNASGLGIIGMYRGRVPNTELFSAAESYAKSLKESNKINFSSLGLTDEEKEAAEHFLNVSDDSQNDYE
As to B1, the “stoichiometry N” value was 10 protomers and 11 protomers and 12 protomers and ≥ 12 protomers.
